In patent publication US20230212319A1, “NOVEL ANTIGEN BINDING DOMAINS AND SYNTHETIC ANTIGEN RECEPTORS INCORPORATING THE SAME” (University of Southern California, priority 2020, published 2023):

System: target antigen-expressing cell line
Assay: Jurkat NFAT-GFP (JNG) assay: induction of NFAT promoter driven GFP expression
Type: cell-based
Conditions: SAR-expressing JNG cells co-cultured with cell lines expressing their target antigen(s)
Experimental: Induction ofNFAT promoter driven GFP expression. […] Cellular supernatant is collected and assayed for the induction of cytokines (e.g., IL2).
Cellular supernatant is collected and assayed for the induction of cytokines (e.g., IL2).
JNG (Jurkat cells expressing EGFP under an NFAT promoter) were infected with lentiviral vectors encoding different single chain and multi-chain SARs by spinfection in the presence of 8 µg/ml of Polybrene® (Sigma, Catalog no. H9268). The Jurkat-NFAT-GFP cells are engineered in such a way that the IL-2 promoter, which carries NFAT binding sites, is cloned upstream of the GFP gene. These cells have been used to study signaling via TCR and CAR. The different SARs were stably expressed in Jurkat NFAT-GFP cells by lentiviral mediated gene transfer, followed by selection with puromycin or blasticidin. No drug selection was used in case the construct lacked an antibiotic resistance gene. The SAR-expressing Jurkat-NFAT-GFP cells were cocultured with the target cells at E:T ratio of approximately 1:2 for approximately 4 hours to 18 hours. When the interaction between SIRs and their target antigen results in activation of the NFAT pathway, GFP expression is induced. […] GFP expression was monitored by FACS analysis. The Jurkat-NFAT-GFP (parental) cells were used as control. The structure of different constructs can be determined based on their names. […] The sequence of the other constructs in the table can be similarly determined from their names and by referring to the different Tables of this disclosure that provide the names and SEQ ID NO of the different modules. Alternatively, the composition and modular architecture of the different SAR constructs can be determined from their sequences by bioinformatics tools, including using nucleic acid and amino acids homology searches. A SAR is considered positive in the assay in case the SAR expressing Jurkat-NFAT-GFP cells show greater % GFP positive cells when cultured with the target cell line as compared to parental Jurkat-NFAT-GFP cells. […] In general, the number +/-, +, 2+, 3+, 4+, 5+ refer to approximately 5%, 10%, 20%, 30%, 40% and 50% GFP positive cells. The % of GFP induction in the above assay is dependent not only the relative strength of the SAR but also, among other factors, on the relative level of expression of the SAR in the JNG cells and the relative level of expression of the target antigen in the target cell line. To control for the difference in gene transduction efficiency of the different SAR constructs, the experiment was conducted with JNG cells transduced with SAR constructs co-expressing a drug resistance gene (e.g., puromycin or PAC) followed by drug selection to generate a stable population of SAR-expressing cells. It is to be noted that the drug resistance gene (e.g., PAC) in the SAR constructs is optional and in vivo studies were conducted with SAR constructs lacking the PAC gene.

B1: SEQ ID NO: 22010: two AABD attached in tandem to one of the two TCR constant chains (protein)
chain: MALPVTALLLPLALLLHAARPLEGKPIPNPLLGLDSTGSGEDLKNVFPPEVAVFEPSKAEIAHTQKATLVCLATGFYPDHVELSWWVNGKEVHSGVCTDPQPLKEQPALNDSRYCLSSRLRVSATFWQNPRNHFRCQVQFYGLSENDEWTQDRAKPVTQIVSAEAWGRADCGITSASYHQGVLSATILYEILLGKATLYAVLVSALVLMAMVKRKDSRGRAKRSGSGATNFSLLKQAGDVEENPGPTSTMALPVTALLLPLALLLHAARPQLQLQESGPGLVKPSETLALTCNVSGGSISSSSYYWGWIRQPPGKRLEWIGSIYYSGSTYFNPSLKSRVTISVDTSKNQFSLKLSSVTAADTAVYYCAGGDYYGPVGQWPSDYRGQGTLVTVSSGSGGGGSGGGGSFEVQLLESGGGLVQPGGSLRLSCAASGFIFSSYAMSWVRQAPGKGQEWVSGVSGTGVNTYYADSVKGRFTISRDNSKNTLYLQMNSLRAEDTAVYYCASGKGWDSGSWYEDYRGQGTLVTVSSTREQKLISEEDGSGIQNPDPAVYQLRDSKSSDKSVCLFTDFDSQTNVSQSKDSDVYITDKCVLDMRSMDFKSNSAVAWSNKSDFACANAFNNSIIPEDTFFPSSDVPCDVKLVEKSFETDTNLNFQNLSVIGFRILLLKVAGFNLLMTLRLWSSRAKRSGSGVKQTLNFDLLKLAGDVESNPGPSRGHMTEYKPTVRLATRDDVPRAVRTLAAAFADYPATRHTVDPDRHIERVTELQELFLTRVGLDIGKVWVADDGAAVAVWTTPESVEAGAVFAEIGPRMAELSGSRLAAQQQMEGLLAPHRPKEPAWFLATVGVSPDHQGKGLGSAVVLPGVEAAERAGVPAFLETSAPRNLPFYERLGFTVTADVEVPEGPRTWCMTRKPGA
GFP induction / activity in JNG assay: only weak and inconsistent activity

B2: SEQ ID NO: 22096: FHVH attached to TCRg-6MD via IgCL linker and second FHVH attached to TCRd-6MD via IgG1-CH1 linker (protein)
chain: MALPVTALLLPLALLLHAARPQLQLQESGPGLVKPSETLSLTCTVSGDSISSGDYYWGWIRQPPGKGLEWIGHIYYSGVTYYNPSLKSRVTISVDTSRNQFSLKLSSVTAADTAVYYCTREDSSNWRSRGQGTLVTVSSLEGQPKANPTVTLFPPSSEELQANKATLVCLISDFYPGAVTVAWKADGSPVKAGVETTKPSKQSNNKYAASSYLSLTPEQWKSHRSYSCQVTHEGSTVEKTVAPTECSPIKTDVITMDPKDNCSKDANDTLLLQLTNTSAYYMYLLLLLKSVVYFAIITCCLLRRTAFCCNGEKSRAKRSGSGATNFSLLKQAGDVEENPGPTSMDWIWRILFLVGAATGAHSFEVQLLESGGGLIQPGGSLRLSCAASGFTFSSHAMTWVRQAPGKGLEWVSAISGSGDYTHYADSVKGRFTISRDNSKNTVYLQMNSLRAEDSAVYYCAKDEDGGSLLGHRGQGTLVTVSSTRASTKGPSVFPLAPSSKSTSGGTAALGCLVKDYFPEPVTVSWNSGALTSGVHTFPAVLQSSGLYSLSSVVTVPSSSLGTQTYICNVNHKPSNTKVDKRVEPKSCEVKTDSTDHVKPKETENTKQPSKSCHKPKAIVHTEKVNMMSLTVLGLRMLFAKTVAVNFLLTAKLFFLRAKRSGSGVKQTLNFDLLKLAGDVESNPGPSRGHMTEYKPTVRLATRDDVPRAVRTLAAAFADYPATRHTVDPDRHIERVTELQELFLTRVGLDIGKVWVADDGAAVAVWTTPESVEAGAVFAEIGPRMAELSGSRLAAQQQMEGLLAPHRPKEPAWFLATVGVSPDHQGKGLGSAVVLPGVEAAERAGVPAFLETSAPRNLPFYERLGFTVTADVEVPEGPRTWCMTRKPGA
GFP induction / activity in JNG assay: best activity
